Here are results for 1 molecule from publication PMC7544621 (Structure (London, England : 1993), 2020).

Broadly, the Kd is the constant that tells how readily two partners part at equilibrium. Lower therefore signals a tighter complex.

This assay deals with T1, monomeric head domain of HA from H1 A/Solomon Islands/03/2006 (Influenza A virus A/Solomon …).
T1 chain: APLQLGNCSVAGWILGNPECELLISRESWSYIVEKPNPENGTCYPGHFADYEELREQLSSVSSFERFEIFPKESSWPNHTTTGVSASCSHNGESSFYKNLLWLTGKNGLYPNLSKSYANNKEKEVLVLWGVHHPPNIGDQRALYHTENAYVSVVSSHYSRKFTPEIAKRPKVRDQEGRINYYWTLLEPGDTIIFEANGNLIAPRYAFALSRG
Put plainly: BLI. (In BLI a coated tip is dipped into the sample, and binding shifts an interference pattern.)

B1: C05 IgG (anti-influenza human mAb C05) (antibody, V domains shown)
VH: QVQLQESGGGLVQPGESLRLSCVGSGSSFGESTLSYYAVSWVRQAPGKGLEWLSIINAGGGDIDYADSVEGRFTISRDNSKETLYLQMTNLRVEDTGVYYCAKHMSMQQVVSAGWERADLVGDAFDVWGQGTMVTVSS
VL: DIQLTQSPSSLSASVGDRVTLTCQASQDIRKFLNWYQQKPGKGPKLLIYDASNLQRGVPSRFSGGGSGTDFTLIISSLQPEDVGTYYCQQYDGLPFTFGGGTKVVIK
B1 showed a Kd of 88 nM.
